{"source": "patent US5763209", "about": "“Methods and materials relating to the functional domains of DNA binding proteins” (Arch Development Corporation)", "key": {"Egr-1 (full length)": {"biological_target": "Egr-1 (full length) (Mus musculus, UniProt P08046 SEQ:1-533)", "sequence (P08046 whole entry)": "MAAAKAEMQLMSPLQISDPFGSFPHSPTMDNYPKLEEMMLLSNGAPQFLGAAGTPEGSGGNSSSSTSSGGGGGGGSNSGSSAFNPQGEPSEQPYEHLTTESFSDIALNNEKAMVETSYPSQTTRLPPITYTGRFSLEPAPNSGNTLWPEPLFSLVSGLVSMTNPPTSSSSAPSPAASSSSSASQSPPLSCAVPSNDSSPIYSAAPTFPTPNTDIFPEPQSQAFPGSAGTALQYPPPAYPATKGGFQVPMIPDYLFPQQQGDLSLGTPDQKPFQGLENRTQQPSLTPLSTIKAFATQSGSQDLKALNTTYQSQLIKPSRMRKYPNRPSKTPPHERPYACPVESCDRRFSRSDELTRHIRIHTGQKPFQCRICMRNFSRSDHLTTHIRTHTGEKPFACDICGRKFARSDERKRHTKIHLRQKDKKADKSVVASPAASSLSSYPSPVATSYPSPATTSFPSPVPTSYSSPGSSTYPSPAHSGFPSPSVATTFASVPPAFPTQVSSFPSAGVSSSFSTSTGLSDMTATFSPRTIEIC", "test": "cell_activity; activation in NIH3T3; dependent on Egr-1 sites"}, "Egr-1 Δ284-330": {"biological_target": "Egr-1 Δ284-330 (Mus musculus, UniProt P08046 SEQ:1-533, del284-330)", "sequence (P08046 other isoform, or with tags, fused parts or gaps del284-330 | mutant)": "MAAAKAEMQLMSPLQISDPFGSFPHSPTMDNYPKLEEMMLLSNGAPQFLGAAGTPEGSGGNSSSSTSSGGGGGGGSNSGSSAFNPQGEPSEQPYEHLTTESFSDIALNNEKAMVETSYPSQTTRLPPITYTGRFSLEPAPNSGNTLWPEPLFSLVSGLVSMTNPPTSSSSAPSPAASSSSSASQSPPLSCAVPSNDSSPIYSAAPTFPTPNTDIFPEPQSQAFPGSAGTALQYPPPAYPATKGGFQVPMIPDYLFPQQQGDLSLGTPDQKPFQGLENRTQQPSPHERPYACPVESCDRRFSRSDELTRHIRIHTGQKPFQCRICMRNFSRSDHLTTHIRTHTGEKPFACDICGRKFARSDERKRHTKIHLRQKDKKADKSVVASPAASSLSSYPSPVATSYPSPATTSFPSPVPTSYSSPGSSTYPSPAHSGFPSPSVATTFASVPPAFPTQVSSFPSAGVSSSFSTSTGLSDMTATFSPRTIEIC", "test": "cell_activity; HeLa, enhanced activation", "protocol": "A series of deletion derivatives, each retaining the zinc finger domain, was assayed for transcriptional activity by transient transfection in HeLa and NIH3T3 cells (see FIG. 9). NIH3T3 and HeLa cells were maintained in Dulbecco's modified Eagle's medium (DMEM) with 10% calf serum. Cells were seeded at 8 ×10^5 cells per 100 mm plate the day before transfection. The media was replaced 2 to 6 hours prior to transfection by calcium phosphate-mediated precipitation. Each precipitate included 1 μg of the internal reference pON260, a CMV driven β-galactosidase plasmid (67), or 3 μg of PCH110, a SV40 driven β-galactosidase plasmid (Pharmacia), and remained on the cells for 16–20 hours. Forty-eight hours after transfection, cell extracts were prepared by freeze thaw lysis in 0.25M Tris-HCl 7.8 with protease inhibitors (1mM PMSF, 1 μg/ml Pepstatin A, and […] Leupeptin).\nDeletion analyses were performed as described in Example 10, above. […] The enhanced activation seen with deletion A284–330 is consistent with the loss of a region important for repression or negative regulation."}}, "data": [{"binder": "EBS1^3 foscat (3 Egr-1 sites in front of minimal c-fos promoter) (dsDNA) DNA 1: CGCCCCCGC DNA 2: GCGGGGGCG", "values": [{"measurement": "activity", "setting": "Egr-1 (full length)", "result": 10, "unit": "fold"}, {"measurement": "activity", "setting": "Egr-1 Δ284-330", "result": "~5 fold of wild type"}]}]}
